Test results as given in patent US20180201677A1 (ERASMUS UNIVERSITY MEDICAL CENTER, published 2018).

Legend:
[1] = molecular target: T1, human CD47 (human, UniProt Q08722 19-323); assay: flow cytometry, titration of SIRPα-Fc-bio on Jurkat cells
[2] = molecular target: T1, human CD47; assay: cell-based or functional assay

biotinylated fusion protein of SIRPα (SIRPα-Fc-bio) (Fc fusion)
EC70 [1]: 7.5 µg/mL

B1: anti-CD47 antibody 2.3D11 (antibody, V domains shown)
VH: QVQLQESGPGLVKPSGTLSLTCAVSGVSIRSINWWNWVRQPPGKGLEWIGEIYHSGSTNYNPSLKSRVTISVDKSKNQFSLKLNSVTAADTAVYYCARDGGIAVTDYYYYGLDVWGQGTTVTVSS
VL: EIVLTQSPATLSLSPGERATLSCRASESVSSNLAWYQQKPGQAPRLLIYGAFNRATGIPARFSGSGSGTDFTLTISSLEPEDFAVYYCQQRSDWFTFGGGTKVEIKR
phagocytosis of Raji tumor cell line targets by primary human macrophages (EC50) [2]: ~0.3 µg/mL
